Where two headings read alike, the source gives them in different places.
Tests used:
Test in all cases: ELISA, OD405 at 10 ug/ml
B.9021 gp140C = B.9021 gp140C (HIV-1)
G.con gp140CF [1] = target: G.con gp140CF
C.CAP206 gp140CF.12 [2] = target: C.CAP206 gp140CF.12 (HIV-1)
B.040 gp140C [3] = target: B.040 gp140C
A.9004SS V1/V2 tags [4] = target: T1, A.9004SS V1/V2 tags
T1 V1V2 tags construct: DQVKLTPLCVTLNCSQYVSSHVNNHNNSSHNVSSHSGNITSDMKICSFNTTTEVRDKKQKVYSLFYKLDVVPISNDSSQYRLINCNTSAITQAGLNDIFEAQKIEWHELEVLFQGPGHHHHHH

B.HXB/BAL gp140CFI [5] = target: T2, B.HXB/BAL gp140CFI (HIV-1, UniProt P04578 33-680)
T2 construct: also called B.HxB/Ba gp140 CFI

SIV CPZ US-1 gp140CF [6] = target: T3, SIV CPZ US-1 gp140CF (SIVcpz)
T3 construct: also called US-1 SIVCPZ gp140CF
T3 chain: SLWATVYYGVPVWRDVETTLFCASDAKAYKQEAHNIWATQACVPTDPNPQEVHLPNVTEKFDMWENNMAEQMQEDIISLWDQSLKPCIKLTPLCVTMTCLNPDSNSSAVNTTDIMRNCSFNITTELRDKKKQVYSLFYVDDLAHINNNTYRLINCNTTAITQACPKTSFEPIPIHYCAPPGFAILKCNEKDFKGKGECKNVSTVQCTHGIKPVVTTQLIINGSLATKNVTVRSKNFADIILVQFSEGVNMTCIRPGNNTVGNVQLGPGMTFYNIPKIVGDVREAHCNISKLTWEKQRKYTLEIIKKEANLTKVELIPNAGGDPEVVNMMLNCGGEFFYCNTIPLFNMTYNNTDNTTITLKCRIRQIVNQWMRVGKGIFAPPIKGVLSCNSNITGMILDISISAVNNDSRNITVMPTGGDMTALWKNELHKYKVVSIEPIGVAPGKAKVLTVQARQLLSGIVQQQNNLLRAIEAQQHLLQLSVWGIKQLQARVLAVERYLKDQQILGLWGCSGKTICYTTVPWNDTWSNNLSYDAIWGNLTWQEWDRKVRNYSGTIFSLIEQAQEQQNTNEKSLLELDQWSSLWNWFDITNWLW

gp70 B.CaseA2 V1/V2 [7] = target: T4, gp70 B.CaseA2 V1/V2 (HIV-1 V1V2 on murine leukemia virus gp70)
T4 construct: also called B.gp70CaseA2 V1/V2; gp70 B.CaseAV1V2
T4 chain: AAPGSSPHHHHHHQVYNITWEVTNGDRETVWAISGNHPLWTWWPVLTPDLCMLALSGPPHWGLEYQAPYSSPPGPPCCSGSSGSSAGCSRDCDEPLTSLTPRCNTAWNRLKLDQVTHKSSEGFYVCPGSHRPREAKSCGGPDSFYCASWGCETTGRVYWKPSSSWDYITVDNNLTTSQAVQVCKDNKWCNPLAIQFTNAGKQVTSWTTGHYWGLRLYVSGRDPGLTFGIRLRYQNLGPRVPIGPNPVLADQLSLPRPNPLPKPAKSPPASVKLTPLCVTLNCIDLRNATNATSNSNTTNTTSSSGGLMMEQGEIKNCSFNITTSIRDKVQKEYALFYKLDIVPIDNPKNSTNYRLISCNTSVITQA

Con 6 gp120 [8] = target: Con 6 gp120
AE.97CNG2XF gp140CF [9] = target: T5, AE.97CNG2XF gp140CF (HIV-1)
T5 construct: also called E.97CNGX2F gp140CF

AE.con gp140CF [10] = target: AE.con gp140CF
B.con gp140CF [11] = target: B.con gp140CF
C.1086 gp140 [12] = target: T6, C.1086 gp140
T6 construct: also called C.1086gp140C

B.62357 gp140C [13] = target: T7, B.62357 gp140C
T7 construct: also called B.62357 140C

gp70 C.1086 V1/V2 [14] = target: T8, gp70 C.1086 V1/V2 (HIV-1 V1V2 on murine leukemia virus gp70)
T8 construct: also called C.gp70 1086C V1V2; C.1086gp70V1V2
T8 chain: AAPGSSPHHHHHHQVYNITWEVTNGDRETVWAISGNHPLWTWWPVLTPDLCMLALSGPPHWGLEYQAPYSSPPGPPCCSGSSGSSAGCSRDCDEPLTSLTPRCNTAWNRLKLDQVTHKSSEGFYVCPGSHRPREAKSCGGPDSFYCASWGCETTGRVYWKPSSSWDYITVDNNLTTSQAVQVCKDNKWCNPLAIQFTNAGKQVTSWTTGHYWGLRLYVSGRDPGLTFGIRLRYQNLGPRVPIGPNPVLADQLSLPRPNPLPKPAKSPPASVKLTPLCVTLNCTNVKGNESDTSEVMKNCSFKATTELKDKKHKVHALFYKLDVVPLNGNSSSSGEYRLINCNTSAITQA

G.con gp140CF [15] = target: G.con gp140CF; remark: listed apart in the source
C.CAP206 gp140CF.12 [16] = target: C.CAP206 gp140CF.12 (HIV-1); remark: listed apart in the source
B.040 gp140C [17] = target: B.040 gp140C; remark: listed apart in the source
A.9004SS V1/V2 tags [18] = target: T1, A.9004SS V1/V2 tags
B.HXB/BAL gp140CFI [19] = target: T2, B.HXB/BAL gp140CFI; remark: listed apart in the source
SIV CPZ US-1 gp140CF [20] = target: T3, SIV CPZ US-1 gp140CF
gp70 B.CaseA2 V1/V2 [21] = target: T4, gp70 B.CaseA2 V1/V2
Con 6 gp120 [22] = target: Con 6 gp120; remark: listed apart in the source
AE.97CNG2XF gp140CF [23] = target: T5, AE.97CNG2XF gp140CF; remark: listed apart in the source
AE.con gp140CF [24] = target: AE.con gp140CF; remark: listed apart in the source
B.con gp140CF [25] = target: B.con gp140CF; remark: listed apart in the source
C.1086 gp140 [26] = target: T6, C.1086 gp140; remark: listed apart in the source
B.62357 gp140C [27] = target: T7, B.62357 gp140C; remark: listed apart in the source
gp70 C.1086 V1/V2 [28] = target: T8, gp70 C.1086 V1/V2

Measured: binding result

B1: CH01_UA1 (antibody, V domains shown)
VH: EVQLVESGGGVVRPGGSLRLSCAASGFTFDDYGMSWVRQAPGKGLEWVSGINWNGGSTGYADSVKGRFTISRDNAKNSLYLQMNSLRAEDTALYYCARGTDYTIDDQGIRYQGSGTFWYFDLWGRGTLVTVSS
VL: not shown
no binding (tested: 10 ug/ml): B.9021 gp140C | G.con gp140CF [1] | C.CAP206 gp140CF.12 [2] | B.040 gp140C [3] | A.9004SS V1/V2 tags [4] | B.HXB/BAL gp140CFI [5] | SIV CPZ US-1 gp140CF [6] | gp70 B.CaseA2 V1/V2 [7] | Con 6 gp120 [8] | AE.97CNG2XF gp140CF [9] | AE.con gp140CF [10] | B.con gp140CF [11] | C.1086 gp140 [12] | B.62357 gp140C [13] | gp70 C.1086 V1/V2 [14]

B2: CH01_UA2 (antibody, V domains shown)
VH: EVQLVESGGGVVRPGGSLRLSCAASGFTFDDYGMSWVRQAPGKGLEWVSGINWNGGSTGYADSVKGRFTISRDNAKNSLYLQMNSLRAEDTALYYCARGTDYTIDDQGILYQGSGTFWYFDLWGRGTLVTVSS
VL: not shown
no binding (tested: 10 ug/ml): G.con gp140CF [15] | C.CAP206 gp140CF.12 [16] | B.040 gp140C [17] | A.9004SS V1/V2 tags [18] | B.HXB/BAL gp140CFI [19] | SIV CPZ US-1 gp140CF [20] | gp70 B.CaseA2 V1/V2 [21] | Con 6 gp120 [22] | AE.97CNG2XF gp140CF [23] | AE.con gp140CF [24] | B.con gp140CF [25] | C.1086 gp140 [26] | B.62357 gp140C [27] | gp70 C.1086 V1/V2 [28]

From patent US9988424 (DUKE UNIVERSITY, dated 2018)
